# In article PMC9710867, “Molecular architecture of the Chikungunya virus replication complex” (Science Advances, 2022):
# B1: CHIKV nsP1 mutant (H37A; amino acids 1 to 535) with internal StrepII-3XFLAG (enzyme)
# chain: MDPVYVDIDADSAFLKALQRAYPMFEVEPRQVTPNDAANARAFSHLAIKLIEQEIDPDSTILDIGSAPARRMMSDRKYHCVCPMRSAEDPERLANYARKLASAAGKVLDRNISGKIGDLQAVMAVPDTETPTFCLHTDVSCRQRADVAIYQDVYAVHAPTSLYHQAIKGVRLAYWVGFDTTPFMYNAMAGAYPSYSTNWADEQVLKAKNIGLCSTDLTEGRRGKLSIMRGKKLEPCDRVLFSVGSTLYPESRKLLKSWHLPSVFHLKGKLSFTCRCDTVVSCEGYVVKRITMSPGLYGKTTGYAVTHHADGFLMCKTTDTVDGERVSFSVCTYVPATICDQMTGILATEVTPEDAQKLLVGLNQRIVVNGRTQRNTNTMKNYMIPVVAQAFSKWAKECRKDMEDEKLLGVRERTLTCCCLWAFKKQKTHTVYKRPDTQSIQKVQAEFDSFVVPSLWSSGLSIPLRTRIKWLLSKVPKTDLTPYSGDAQEARDAEKEAEEEREAELTLEALPPLQAAQEDVQVEIDVEQLEDRAGA
# notes: nonstructural protein 1 (nsP1) of chikungunya virus, amino acids 1 to 535 of the nonstructural polyprotein; also called nsP1 ring; nsP1 dodecameric ring; not shown: StrepII, internal (after residue 516), kept; copies: 12
# B2: ONNV nsP4, full length (amino acids 1904 to 2514) (enzyme)
# chain: IFSSDTGQGHLQQKSVRQTTLPVNIVEEVHEEKCYPPKLDEIKEQLLLKRLQESASTANRSRYQSRKVENMKATIIHRLKEGCRLYLASDTPRVPSYRITYPAPVYSPSISIKLNNPETAVAVCNEFLARNYPTVASYQVTDEYDAYLDMVDGSESCLDRATFNPSKLRSYPKQHSYHAPTIRSAVPSPFQNTLQNVLAAATKRNCNVTQMRELPTMDSAVFNVECFKKYACNQEYWREFASSPIRVTTENLTMYVTKLKGPKAAALFAKTHNLLPLQEVPMDRFTMDMKRDVKVTPGTKHTEERPKVQVIQAAEPLATAYLCGIHRELVRRLNAVLLPNVHTLFDMSAEDFDAIISTHFKPGDAVLETDIASFDKSQDDSLALTAMMLLEDLGVDQPILDLIEAAFGEISSCHLPTGTRFKFGAMMKSGMFLTLFVNTLLNITIASRVLEERLTTSACAAFIGDDNIIHGVVSDALMAARCATWMNMEVKIIDAVVSEKAPYFCGGFILHDTVTGTSCRVADPLKRLFKLGKPLAAGDEQDEDRRRALADEVTRWQRTGLITELEKAVYSRYEVQGITAVITSMATFASSKENFKKLRGPVVTLYGGPK
# notes: Contact residues in the text (D219, E392, D393, D402, E405; NTD 1 to 105) count on nsP4 itself; also called o'nyong-nyong virus nsP4; nsP4 RdRp
# B3: CHIKV nsP2, full length (amino acids 536 to 1333) (enzyme)
# chain: GIIETPRGAIKVTAQPTDHVVGEYLVLSPQTVLRSQKLSLIHALAEQVKTCTHSGRAGRYAVEAYDGRVLVPSGYAISPEDFQSLSESATMVYNEREFVNRKLHHIAMHGPALNTDEESYELVRAERTEHEYVYDVDQRRCCKKEEAAGLVLVGDLTNPPYHEFAYEGLKIRPACPYKIAVIGVFGVPGSGKSAIIKNLVTRQDLVTSGKKENCQEITTDVMRQRGLEISARTVDSLLLNGCNRPVDVLYVDEAFACHSGTLLALIALVRPRQKVVLCGDPKQCGFFNMMQMKVNYNHNICTQVYHKSISRRCTLPVTAIVSSLHYEGKMRTTNEYNKPIVVDTTGSTKPDPGDLVLTCFRGWVKQLQIDYRGHEVMTAAASQGLTRKGVYAVRQKVNENPLYASTSEHVNVLLTRTEGKLVWKTLSGDPWIKTLQNPPKGNFKATIKEWEVEHASIMAGICSHQMTFDTFQNKANVCWAKSLVPILETAGIKLNDRQWSQIIQAFKEDKAYSPEVALNEICTRMYGVDLDSGLFSKPLVSVYYADNHWDNRPGGKMFGFNPEAASILERKYPFTKGKWNINKQICVTTRRIEDFNPTTNIIPANRRLPHSLVAEHRPVKGERMEWLVNKINGHHVLLVSGCSLALPTKRVTWVAPLGVRGADYTYNLELGLPATLGRYDLVVINIHTPFRIHHYQQCVDHAMKLQMLGGDSLRLLKPGGSLLIRAYGYADRTSERVICVLGRKFRSSRALKPPCVTSNTEMFFLFSNFDNGRRNFTTHVMNNQLNAAFVGQATRAGC
# notes: nonstructural protein 2 (nsP2) of chikungunya virus, full length, amino acids 536 to 1333 of the nonstructural polyprotein; Contact residues in the text (R56, R59, Y60, R101; nsP2h 1 to 465) count on nsP2 itself; The His6-SUMO tag is called cleavable; Only the helicase region is built in the cryo-EM model; also called nsP2 helicase-protease
# What was measured:
# Assay in all cases: cryo-EM structure; single-particle cryo-EM of the reconstituted nsP1 + 2 + 4 RC core mixed with T2 RNA and NTP in 1x buffer Z at 1:10:100 molar ratio; C1, 2.8 Å
# [1] = molecular target: the molecule itself
# [2] = molecular target: B1; conditions: both partners purified
# [3] = molecular target: B2; conditions: both partners purified
binder,measurement,setting,value
B1,stoichiometry N,[1],12
B2,stoichiometry N,[2],12 nsP1 per nsP4
B3,stoichiometry N,[3],1 nsP2 per nsP4
